Test results reported in patent publication US20100291682, “SYSTEM FOR TRANSPOSING HYPERACTIVE RECOMBINANT DERIVATIVES OF MOS-1 TRANSPOSON” (published 2010).
Changes are numbered by the printed parent chain.

Legend:
Assay in all cases: cell_activity; 3T46 transposition in E. coli T5 vs 3T3/WT
Conditions in all cases: chain copies: 2
Mos-1 transposase TY = molecular target: T1, Mos-1 transposase TY (Drosophila mauritiana, UniProt Q7JQ07 SEQ:1-345, T216A,Y237C)
T1 sequence: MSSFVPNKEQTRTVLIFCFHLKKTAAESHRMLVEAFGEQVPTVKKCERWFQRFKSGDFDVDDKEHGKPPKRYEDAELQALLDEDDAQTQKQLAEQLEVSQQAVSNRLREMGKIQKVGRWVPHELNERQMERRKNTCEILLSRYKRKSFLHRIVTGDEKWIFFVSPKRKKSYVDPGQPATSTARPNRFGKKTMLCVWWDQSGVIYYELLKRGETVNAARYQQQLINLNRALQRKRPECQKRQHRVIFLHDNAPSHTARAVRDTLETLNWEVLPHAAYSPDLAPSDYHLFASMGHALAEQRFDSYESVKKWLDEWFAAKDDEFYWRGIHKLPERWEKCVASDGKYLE
Experimental: (§1) Escherichia coli JM109 bacteria were co-transformed with the pBC 3T3 plasmid (comprising a transposition reporter 2 ITR 3′ mariner-like element and the chloramphenicol resistance gene) and with the inducible vector encoding for the transposase (pKK-Tnp or pMal-Tnp) comprising the ampicillin resistance gene. The bacteria selection was performed on ampicillin (100 μg/ml) and chloramphenicol in order to verify the presence of the two plasmids.
(§2) The JM109 bacteria containing both the pBC 3T3 plasmid and the pKK-Tnp (or pMalC2X-Tnp) plasmid were placed in culture for 1 hr at 37° C. in 250 μl of LB. This inoculum was then poured into 5 ml of LB supplemented with 1 mM IPTG. The culture was titrated on LB plates (100 μl of a 1/1000 dilution) and on LB-Tet plates (12.5 μg/ml) (250 μl of the non-diluted culture). The culture induced by IPTG was then cultured for 5 hours at 32° C. (optimal temperature of transposase) under stirring (250 rpm). The bacterial suspension was then titrated on LB plates (100 μl of a 1/250,000 dilution) and on LB-tet plates (100 μl of the undiluted bacterial suspension). The plates were placed at 37° C. overnight. The following day, the colonies were counted on LB and LB-Tet plates, and the transposition frequency (equal to the number of tetracycline bacteria over the number of bacterial per 1 ml of undiluted bacterial suspension) was calculated.
(§3) In order to evaluate the transposition efficiency of systems associating a hyperactive transposase and a pseudo-transposon that is also hyperactive, various combinations were tested in the transposition test in bacteria described in part I, paragraph I-B above.

Mos-1 transposase FQ = molecular target: T2, Mos-1 transposase FQ (Drosophila mauritiana, UniProt Q7JQ07 SEQ:1-345, F53Y,Q91R)
T2 sequence: T1 sequence with F53Y, Q91R, A216T, C237Y
Experimental: as §1, §2, §3

Mos-1 transposase QY = molecular target: T3, Mos-1 transposase QY (Drosophila mauritiana, UniProt Q7JQ07 SEQ:1-345, Q91R,Y237C)
T3 sequence: T1 sequence with Q91R, A216T
Experimental: as §1, §2, §3

Mos-1 transposase FT = molecular target: T4, Mos-1 transposase FT (Drosophila mauritiana, UniProt Q7JQ07 SEQ:1-345, F53Y,T216A)
T4 sequence: T1 sequence with F53Y, C237Y
Experimental: as §1, §2, §3

Mos-1 transposase FQET = molecular target: T5, Mos-1 transposase FQET (Drosophila mauritiana, UniProt Q7JQ07 SEQ:1-345, F53Y,Q91R,E137K,T216A)
T5 sequence: T1 sequence with F53Y, Q91R, E137K, C237Y
Experimental: as §1, §2, §3

B1: ITR46 (dsDNA)
DNA 1: TCAGGTGTACAAGTATGAGATGTCGTTT
DNA 2: AAACGACATCTCATACTTGTACACCTGA
activity (Mos-1 transposase TY): 61.8 fold | activity (Mos-1 transposase FQ): 3.3 fold | activity (Mos-1 transposase QY): 1.7 fold | activity (Mos-1 transposase FT): 3.7 fold | activity (Mos-1 transposase FQET): 12.3 fold
